Assay results: the supplement of paper PMC10065799, “High-throughput profiling of sequence recognition by tyrosine kinases and SH2 domains using bacterial peptide display” (eLife, 2023)

Assays:
AncSZ = experiment: phosphorylation enrichment, bacterial display (enrichment ratio); higher = better substrate or ligand; peptides without Tyr show the background
FGFR3 = FGFR3 (UniProt P22607); experiment: as above
Fyn = Fyn (UniProt P06241); experiment: as above
Fes = Fes (UniProt P07332); experiment: as above
MERTK = MERTK (UniProt Q12866); experiment: as above
Jak2 = Jak2 (UniProt O60674); experiment: as above
Sequence of Jak2 (O60674 whole entry, looked up): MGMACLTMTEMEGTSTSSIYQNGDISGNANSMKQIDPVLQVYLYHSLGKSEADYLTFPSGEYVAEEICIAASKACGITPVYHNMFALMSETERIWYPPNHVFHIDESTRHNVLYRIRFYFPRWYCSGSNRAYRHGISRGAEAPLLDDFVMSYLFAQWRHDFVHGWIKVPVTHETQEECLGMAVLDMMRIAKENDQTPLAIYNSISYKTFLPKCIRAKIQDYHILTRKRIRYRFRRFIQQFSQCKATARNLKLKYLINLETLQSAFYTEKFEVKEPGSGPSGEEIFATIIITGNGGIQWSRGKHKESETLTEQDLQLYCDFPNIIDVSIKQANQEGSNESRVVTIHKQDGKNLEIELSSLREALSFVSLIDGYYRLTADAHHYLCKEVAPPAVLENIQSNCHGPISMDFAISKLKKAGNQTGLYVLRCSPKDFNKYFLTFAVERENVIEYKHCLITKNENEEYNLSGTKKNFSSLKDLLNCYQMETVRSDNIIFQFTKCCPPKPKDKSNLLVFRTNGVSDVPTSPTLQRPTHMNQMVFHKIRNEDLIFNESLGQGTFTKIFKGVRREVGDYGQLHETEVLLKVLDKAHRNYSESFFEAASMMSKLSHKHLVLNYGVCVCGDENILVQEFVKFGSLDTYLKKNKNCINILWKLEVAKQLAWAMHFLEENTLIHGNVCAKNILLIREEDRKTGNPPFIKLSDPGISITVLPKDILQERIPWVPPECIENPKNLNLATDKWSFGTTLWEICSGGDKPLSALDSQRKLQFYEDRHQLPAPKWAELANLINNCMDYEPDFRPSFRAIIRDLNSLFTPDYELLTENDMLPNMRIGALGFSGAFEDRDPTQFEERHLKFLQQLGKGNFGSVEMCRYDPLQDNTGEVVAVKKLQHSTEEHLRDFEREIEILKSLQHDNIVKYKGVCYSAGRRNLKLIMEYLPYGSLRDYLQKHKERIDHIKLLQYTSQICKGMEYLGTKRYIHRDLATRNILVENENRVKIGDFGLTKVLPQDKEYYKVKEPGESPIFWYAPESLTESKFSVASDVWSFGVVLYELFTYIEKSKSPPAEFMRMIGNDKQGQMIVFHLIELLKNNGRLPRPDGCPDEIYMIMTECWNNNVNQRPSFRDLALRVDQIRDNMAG

FGFR1 = FGFR1 (UniProt P11362); experiment: as above
c-Abl (mouse) = experiment: as above
Fer (mouse) = experiment: as above
EPHB1 = EPHB1 (UniProt P54762); experiment: as above
c-Src = experiment: as above
Hck = Hck (UniProt P08631); experiment: as above
Sequence of Hck (P08631 whole entry, looked up): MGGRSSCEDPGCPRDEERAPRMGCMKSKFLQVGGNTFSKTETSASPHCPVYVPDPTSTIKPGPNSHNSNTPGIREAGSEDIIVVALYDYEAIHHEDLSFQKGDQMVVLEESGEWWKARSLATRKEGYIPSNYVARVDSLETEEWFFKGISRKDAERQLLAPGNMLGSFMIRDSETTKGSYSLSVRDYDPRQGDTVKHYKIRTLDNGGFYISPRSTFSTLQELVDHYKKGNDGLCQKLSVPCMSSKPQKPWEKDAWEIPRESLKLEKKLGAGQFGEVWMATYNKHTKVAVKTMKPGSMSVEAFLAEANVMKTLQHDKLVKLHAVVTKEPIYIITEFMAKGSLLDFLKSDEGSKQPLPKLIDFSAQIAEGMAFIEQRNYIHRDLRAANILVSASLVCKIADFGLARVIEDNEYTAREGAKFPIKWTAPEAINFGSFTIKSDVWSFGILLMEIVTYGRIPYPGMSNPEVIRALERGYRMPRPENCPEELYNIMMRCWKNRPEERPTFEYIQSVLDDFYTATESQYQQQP

EPHB2 = EPHB2 (UniProt P29323); experiment: as above
Sequence of EPHB2 (P29323 whole entry, looked up): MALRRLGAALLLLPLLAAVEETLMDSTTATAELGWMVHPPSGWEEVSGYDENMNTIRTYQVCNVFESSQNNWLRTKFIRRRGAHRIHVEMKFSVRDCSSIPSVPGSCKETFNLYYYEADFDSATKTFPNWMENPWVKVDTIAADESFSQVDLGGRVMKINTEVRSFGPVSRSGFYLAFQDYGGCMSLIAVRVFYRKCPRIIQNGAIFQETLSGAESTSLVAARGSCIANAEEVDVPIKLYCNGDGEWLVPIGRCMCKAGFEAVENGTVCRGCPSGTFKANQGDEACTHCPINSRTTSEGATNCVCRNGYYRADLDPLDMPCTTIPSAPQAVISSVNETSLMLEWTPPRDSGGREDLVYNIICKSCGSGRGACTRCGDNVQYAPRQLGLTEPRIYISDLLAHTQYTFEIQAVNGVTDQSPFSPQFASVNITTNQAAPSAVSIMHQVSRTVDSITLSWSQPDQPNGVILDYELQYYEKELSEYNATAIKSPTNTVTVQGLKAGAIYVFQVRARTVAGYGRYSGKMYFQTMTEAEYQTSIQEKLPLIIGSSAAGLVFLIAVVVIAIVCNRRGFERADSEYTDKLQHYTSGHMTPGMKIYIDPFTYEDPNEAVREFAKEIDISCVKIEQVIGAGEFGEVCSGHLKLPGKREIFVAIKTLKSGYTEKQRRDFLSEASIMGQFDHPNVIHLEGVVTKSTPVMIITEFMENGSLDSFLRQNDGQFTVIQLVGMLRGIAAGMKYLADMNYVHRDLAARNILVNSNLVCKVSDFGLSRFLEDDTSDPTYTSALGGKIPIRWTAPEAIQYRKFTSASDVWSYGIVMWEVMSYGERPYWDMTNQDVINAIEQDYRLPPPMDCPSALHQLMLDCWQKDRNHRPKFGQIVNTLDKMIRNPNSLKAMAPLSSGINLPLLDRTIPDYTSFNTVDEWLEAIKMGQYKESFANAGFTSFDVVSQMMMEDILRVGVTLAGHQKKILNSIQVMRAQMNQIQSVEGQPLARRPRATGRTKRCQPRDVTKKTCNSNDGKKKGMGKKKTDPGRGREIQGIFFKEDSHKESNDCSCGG

Grb2 SH2 = Grb2 SH2 (UniProt P62993); experiment: SH2 binding enrichment of the phosphorylated peptide, bacterial display (enrichment ratio); higher = better substrate or ligand; peptides without Tyr show the background
Sequence of Grb2 SH2 (P62993 whole entry, looked up): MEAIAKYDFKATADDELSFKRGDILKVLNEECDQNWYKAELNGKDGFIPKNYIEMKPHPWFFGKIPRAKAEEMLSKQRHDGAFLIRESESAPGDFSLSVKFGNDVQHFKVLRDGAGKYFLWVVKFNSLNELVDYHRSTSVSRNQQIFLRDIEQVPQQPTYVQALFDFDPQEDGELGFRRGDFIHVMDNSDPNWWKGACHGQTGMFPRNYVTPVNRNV

c-Src SH2 = experiment: as above
SHP2-C SH2 = experiment: as above
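Throughout, for SH2 binding enrichment of the phosphorylated peptide, bacterial display: peptide library displayed on the E. coli surface as eCPX fusions, selected cells deep-sequenced, score is each peptide's frequency after selection divided by its frequency in the input.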
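Throughout, for phosphorylation enrichment, bacterial display: 11-residue human phosphosite peptides and single-mutation variants displayed on the E. coli surface, counted by deep sequencing, each peptide's frequency after selection divided by its frequency in the unselected input library; frequency after pTyr selection over input frequency; kinase dosed for 20-30% of maximal phosphorylation in three min.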

Sequence of Fyn (P06241 whole entry, looked up): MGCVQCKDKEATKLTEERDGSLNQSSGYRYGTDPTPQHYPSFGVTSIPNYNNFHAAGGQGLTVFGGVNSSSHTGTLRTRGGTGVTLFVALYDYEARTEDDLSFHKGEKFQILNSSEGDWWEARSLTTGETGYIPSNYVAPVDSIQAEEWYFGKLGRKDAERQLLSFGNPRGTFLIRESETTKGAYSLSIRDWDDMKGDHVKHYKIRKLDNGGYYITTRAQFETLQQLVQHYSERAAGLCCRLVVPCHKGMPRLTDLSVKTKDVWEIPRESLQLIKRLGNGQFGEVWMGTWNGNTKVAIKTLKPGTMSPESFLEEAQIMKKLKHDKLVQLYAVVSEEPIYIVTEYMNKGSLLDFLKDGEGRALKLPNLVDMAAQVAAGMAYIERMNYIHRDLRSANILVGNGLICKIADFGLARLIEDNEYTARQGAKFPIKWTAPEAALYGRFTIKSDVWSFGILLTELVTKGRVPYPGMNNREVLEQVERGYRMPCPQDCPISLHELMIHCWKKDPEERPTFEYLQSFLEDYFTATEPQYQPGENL
Sequence of FGFR3 (P22607 whole entry, looked up): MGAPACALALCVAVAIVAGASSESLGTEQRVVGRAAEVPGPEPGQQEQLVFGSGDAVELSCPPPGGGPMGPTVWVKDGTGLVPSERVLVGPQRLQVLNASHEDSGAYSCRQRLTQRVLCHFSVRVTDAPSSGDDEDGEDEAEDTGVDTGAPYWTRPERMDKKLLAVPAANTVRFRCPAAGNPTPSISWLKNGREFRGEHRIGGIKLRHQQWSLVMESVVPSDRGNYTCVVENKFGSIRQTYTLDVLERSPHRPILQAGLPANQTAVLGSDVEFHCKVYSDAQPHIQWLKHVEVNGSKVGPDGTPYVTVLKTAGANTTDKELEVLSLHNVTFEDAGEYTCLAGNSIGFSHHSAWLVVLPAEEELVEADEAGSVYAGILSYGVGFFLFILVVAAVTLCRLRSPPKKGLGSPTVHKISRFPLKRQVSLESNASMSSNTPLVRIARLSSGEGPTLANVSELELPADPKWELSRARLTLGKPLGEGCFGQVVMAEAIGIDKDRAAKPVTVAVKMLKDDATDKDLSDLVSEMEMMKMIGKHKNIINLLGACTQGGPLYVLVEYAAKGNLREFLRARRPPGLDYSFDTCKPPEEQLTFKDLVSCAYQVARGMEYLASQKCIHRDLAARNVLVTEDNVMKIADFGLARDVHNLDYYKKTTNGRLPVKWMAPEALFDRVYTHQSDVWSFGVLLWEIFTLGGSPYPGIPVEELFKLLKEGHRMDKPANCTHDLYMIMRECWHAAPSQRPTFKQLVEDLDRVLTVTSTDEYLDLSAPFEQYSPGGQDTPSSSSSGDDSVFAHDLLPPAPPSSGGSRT

| Sequence | phosphorylation enrichment (AncSZ) | phosphorylation enrichment (FGFR3) | phosphorylation enrichment (Fyn) | phosphorylation enrichment (Fes) | phosphorylation enrichment (MERTK) | phosphorylation enrichment (Jak2) | phosphorylation enrichment (FGFR1) | phosphorylation enrichment (c-Abl (mouse)) | phosphorylation enrichment (Fer (mouse)) | phosphorylation enrichment (EPHB1) | phosphorylation enrichment (c-Src) | phosphorylation enrichment (Hck) | phosphorylation enrichment (EPHB2) | SH2 binding enrichment (Grb2 SH2) | SH2 binding enrichment (c-Src SH2) | SH2 binding enrichment (SHP2-C SH2) |
| --- | --- | --- | --- | --- | --- | --- | --- | --- | --- | --- | --- | --- | --- | --- | --- | --- |
| GLIPAYHRVIV [NMNAT1_Y64_M69V] | 0.804 | 0.639 | 0.458 | 0.933 | 0.437 | 1.15 | 0.627 | 0.622 | 0.44 | 0.515 | 0.371 | 0.481 | 0.453 | 0.987 | 1.26 | 0.957 |
| AGEGTYALDSE [PES1_Y265] | 0.972 | 0.643 | 0.984 | 1.04 | 0.434 | 0.878 | 0.484 | 0.816 | 0.5 | 0.576 | 0.935 | 0.528 | 0.511 | 0.928 | 0.617 | 0.435 |
| ERDFTYEELLN [EIF2S2_Y176_YF] | 1.23 | 0.692 | 0.678 | 1.12 | 0.492 | 1.01 | 0.527 | 0.66 | 0.69 | 0.628 | 0.675 | 0.855 | 0.515 | 1.14 | 0.69 | 0.715 |
| TESNNYIFTTL [FAM83B_Y637_K640T_YF] | 1.12 | 0.912 | 0.539 | 1.27 | 0.612 | 1.11 | 1.02 | 0.982 | 0.722 | 0.687 | 0.537 | 0.571 | 0.641 | 0.922 | 0.502 | 0.821 |
| YVSLIYTNYEA [GSTP1_Y109_I105V] | 1.84 | 5.46 | 5.04 | 1.36 | 4.74 | 1.32 | 6.43 | 1.87 | 3.36 | 3.04 | 4.34 | 3.62 | 2.87 | 1.18 | 3.42 | 4.37 |
| DEQKKYFNAMK [SCN5A_Y1494_E1489D_YF] | 0.68 | 0.474 | 0.394 | 0.883 | 0.448 | 0.952 | 0.592 | 0.815 | 0.437 | 0.374 | 0.548 | 0.419 | 0.428 | 0.856 | 0.554 | 1.03 |
| KFANSYIMEPL [TCTE3_Y87_R88I] | 0.853 | 0.629 | 0.529 | 0.606 | 0.37 | 0.476 | 0.524 | 0.436 | 0.498 | 0.39 | 0.712 | 0.432 | 0.531 | 0.91 | 0.583 | 0.715 |
| KVPAIYGVDTR [CPS1_Y162] | 0.61 | 0.469 | 0.642 | 0.665 | 0.54 | 0.615 | 0.398 | 0.525 | 0.422 | 0.334 | 0.782 | 0.701 | 0.383 | 0.841 | 0.466 | 0.707 |
| RPPELYALMSD [ZAP70_Y569_C564R] | 2.05 | 1.36 | 1.28 | 2.19 | 15.2 | 2.28 | 1.44 | 1.81 | 1.17 | 14.6 | 1.84 | 2.17 | 3.94 | 0.958 | 1.23 | 0.895 |
| IFLENYNAGTY [CFI_Y421_H418L] | 0.846 | 0.897 | 0.415 | 1.04 | 0.403 | 0.786 | 0.481 | 0.665 | 0.558 | 0.656 | 0.687 | 0.543 | 0.443 | 0.937 | 0.668 | 0.777 |
| RRAKGYPIYLY [ITGB2_Y125_D128Y] | 0.997 | 1.18 | 0.684 | 0.922 | 0.698 | 0.682 | 0.59 | 0.951 | 0.652 | 0.44 | 1.04 | 0.807 | 0.624 | 0.695 | 0.477 | 0.504 |
| FDDIANIRKTL [PIK3CA_Y1021_Y1021N] | 0.873 | 0.513 | 0.465 | 0.746 | 0.386 | 0.496 | 0.652 | 0.813 | 0.459 | 0.525 | 0.416 | 0.275 | 0.452 | 0.858 | 0.547 | 0.635 |
| RPAFTYATLIR [FOXP3_Y342_P339A] | 1.19 | 0.868 | 2.01 | 1.59 | 1.64 | 1.55 | 0.817 | 1.4 | 0.718 | 2.25 | 6.49 | 3.08 | 1.17 | 1.66 | 1.42 | 7.65 |
| HCYNSYTYPRL [PAK7_Y316_S312C] | 2.4 | 0.884 | 0.943 | 1.47 | 2.84 | 1.33 | 1.35 | 0.932 | 0.684 | 0.775 | 0.725 | 0.74 | 0.784 | 0.902 | 5.34 | 0.799 |
| GTATAYLCRVK [ALPL_Y117_G120R] | 0.678 | 0.514 | 0.404 | 0.804 | 0.363 | 0.578 | 0.471 | 0.595 | 0.517 | 0.48 | 0.399 | 0.389 | 0.506 | 1.07 | 0.525 | 0.771 |
| WKGSWYSMKKM [FGB_Y475_R478K] | 0.736 | 0.553 | 0.488 | 0.918 | 0.362 | 0.859 | 0.488 | 0.533 | 0.353 | 0.645 | 0.373 | 0.437 | 0.506 | 1.3 | 1.19 | 1.37 |
| RLQKLYLDRNL [IGFALS_Y248] | 0.812 | 0.787 | 0.811 | 1.23 | 0.868 | 1.63 | 0.776 | 1.16 | 0.795 | 1.4 | 0.851 | 0.975 | 0.43 | 0.884 | 0.393 | 0.634 |
| LDLSFYHTSSS [EMD_Y182_P183H_YF] | 1.21 | 0.903 | 0.553 | 1.19 | 0.414 | 1.04 | 0.575 | 0.644 | 0.423 | 0.845 | 0.879 | 0.575 | 0.676 | 1 | 0.773 | 0.701 |
| SSGSRYQPLAS [NCAPD2_Y1325_T1321S] | 0.529 | 0.433 | 0.384 | 0.558 | 0.43 | 0.531 | 0.468 | 0.488 | 0.392 | 0.366 | 0.453 | 0.442 | 0.431 | 0.977 | 0.583 | 0.843 |
| AKFLGYPPPEI [KDR_Y357_YF] | 0.773 | 0.609 | 0.426 | 0.902 | 0.412 | 0.565 | 0.499 | 0.627 | 0.459 | 0.474 | 0.436 | 0.488 | 0.413 | 0.794 | 0.476 | 0.619 |
| ALVFLYFCIIF [SIGLEC12_Y494] | 1.04 | 0.803 | 0.552 | 1.16 | 0.636 | 1.01 | 0.58 | 0.957 | 0.6 | 0.397 | 0.741 | 0.964 | 0.483 | 1.91 | 1.36 | 1.48 |
| RLLVVYPRTQR [HBB_Y36_W38R] | 1.05 | 0.525 | 0.785 | 1.28 | 0.658 | 1.07 | 0.685 | 0.799 | 0.619 | 0.457 | 0.484 | 0.704 | 0.81 | 0.799 | 0.581 | 0.429 |
| DFTEAYNPKIK [CLK1_Y305_YF] | 0.874 | 0.649 | 0.453 | 1.11 | 0.501 | 0.988 | 0.464 | 0.893 | 0.466 | 0.509 | 0.571 | 0.505 | 0.572 | 0.947 | 0.533 | 1.11 |
| APTSGYQEFIH [IL4R_Y575_V579I] | 0.717 | 0.679 | 0.504 | 0.82 | 0.429 | 0.684 | 0.572 | 0.527 | 0.416 | 0.424 | 0.442 | 0.461 | 0.582 | 0.878 | 3.98 | 0.5 |
| KRAIGHFSATS [FAM120A_Y327_Y327H_YF] | 0.423 | 0.39 | 0.351 | 0.42 | 0.371 | 0.456 | 0.335 | 0.402 | 0.338 | 0.407 | 0.387 | 0.397 | 0.332 | 0.852 | 0.525 | 0.66 |
| MVSLFYGTALF [OR10C1_Y251] | 1.32 | 0.906 | 2.21 | 1.32 | 0.707 | 1.2 | 0.51 | 1.21 | 1.18 | 0.757 | 2.44 | 1.45 | 0.708 | 0.865 | 0.431 | 0.778 |
| AAPAAYDAADT [GAMT_Y27] | 1.1 | 0.683 | 0.522 | 0.97 | 0.461 | 0.857 | 0.529 | 0.782 | 0.526 | 0.479 | 0.513 | 0.495 | 0.5 | 0.839 | 1.11 | 0.654 |
| FFHKFYNKSED [RYR1_Y4864_R4861H] | 1 | 0.948 | 0.558 | 1.43 | 0.761 | 1.09 | 0.665 | 0.72 | 0.497 | 0.727 | 0.588 | 0.616 | 0.719 | 0.741 | 0.521 | 0.746 |
| NYGTNYRVGSS [CPO_Y278_K273N] | 0.458 | 0.389 | 0.463 | 0.503 | 0.368 | 0.441 | 0.357 | 0.372 | 0.719 | 0.493 | 0.425 | 0.465 | 0.681 | 0.924 | 0.55 | 0.639 |
